According to patent US20210396761A1 (AICURIS, published 2021):
Non-standard residues stand in square brackets, D forms with d. *: point of attachment. Bio = O=C1N[C@H]2[C@H](CS[C@H]2CCCCC(=O)*)N1; Aoa = not defined here

B1: His-tagged pUL50 (HCMV groove protein, soluble recombinant) (other)
chain: MEMNKVLHQDLVQATRRILKLGPSELRVTDAGLICKNPNYSVCDAMLKTDTVYCVEYLLSYWESRTDHVPCFIFKNTGCAVSLCCFVRAPVKLVSPARHVGEFNVLKVNESLIVTLKDIEEIKPSAYGVLTKCVVRKSNSASVFNIELIAFGPENEGEYENLLRELYAKKAASTS
notes: also called His-tagged groove protein
B2: His-tagged BFRF1 (EBV groove protein, soluble recombinant) (other)
chain: MASPEERLLDELNNVIVSFLCDSGSLEVERCSGAHVFSRGSSQPLCTVKLRHGQIYHLEFVYKFLAFKLKNCNYPSSPVFVISNNGLATTLRCFLHEPSGLRSGQSGPCLGLSTDVDLPKNSIIMLGQDDFIKFKSPLVFPAELDLLKSMVVCRAYITEHRTTMQFLVFQAANAQKASRVMDMISDMSQQLS
notes: as for B1
B3: VZV Orf24, C-terminally fused to the HA epitope (pcDNA-Orf24-HA, pHM4695) (other)
chain: MSRRTYVRSERRRGCGDNLLQRIRLVVPSALQCCDGDLPIFDPQRPPARCVFQFNGEDNVSEAFPVEYIMRLMANWAQVDCDPYIKIQNTGVSVLFQGFFFRPTNAPVAEVSIDSNNVILSSTLSTGINLSALESIKRGGGIDRRPLQALMWVNCFVRMPYVQLSFRFMGPEDPSRTIKLMARATDAYMYKETGNNLDEYIRWRPSFRSPPENGSPNTSVQMQSDIKPALPDTQTTRVWKLALPVANVTYALFIVIVLVVVLGAVLFWK
B4: HCMV pUL53, C-terminally fused to the Flag epitope (pcDNA-UL53-Flag, pHM2590) (other)
chain: MSSVSGVRTPRERRSALRSLLRKRRQRELASKVASTVNGATSANNHGEPPSPADARPRLTLHDLHDIFREHPELELKYLNMMKMAITGKESICLPFNFHSHRQHTCLDISPYGNEQVSRIACTSCEDNRILPTASDAMVAFINQTSNIMKNRNFYYGFCKSSELLKLSTNQPPIFQIYYLLHAANHDIVPFMHAEDGRLHMHVIFENPDVHIPCDCITQMLTAAREDYSVTLNIVRDHVVISVLCHAVSASSVKIDVTILQRKIDEMDIPNDVSESFERYKELIQELCQSSGNNLYEEATSSYAIRSPLTASPLHVVSTNGCGPSSSSQSTPPHLHPPSQATQPHHYSHHQSQSQQHHHRPQSPPPPLFLNSIRAPDYKDDDDK
notes: also called pUL53-Flag; Flag-tagged pUL53
B5: EBV BFLF2, C-terminally fused to the Flag epitope (pcDNA-BFLF2-Flag, pHM4698) (other)
chain: MAPVTPDAVNARQQRPADPALRRLMHPHHRNYTASKASAHSVKSVSRCGKSRSELGRMERVGSVARSICSRHTRHGVDRSHFSLRDFFRGISANFELGKDFLREMNTPIHVSEAVFLPLSLCTLSPGRCLRLSPFGHSLTLGSHCEICINRSQVHVPQEFSSTQLSFFNNVHKIIPNKTFYVSLLSSSPSAVKAGLSQPSLLYAYLVTGHFCGTICPIFSTNGKGRLIMHLLLQGTSLHIPETCLKLLCENIGPTYELAVDLVGDAFCIKVSPRDTVYEKAVNVDEDAIYEAIKDLECGDELRLQIINYTQLILENKQDYKDDDDK
notes: also called Flag-tagged BFLF2
B6: VZV Orf27, C-terminally fused to the Flag epitope (pcDNA-Orf27-Flag, pHM4696) (other)
chain: MHLKPTRFFHANQPPMPHSYEMEDLCFDDMQYRWSPSNTPYRSMSRRYKSVSRSGPSMRVRSRTPCRRQTIRGKLMSKERSVYRHYFNYIARSPPEELATVRGLIVPIIKTTPVTLPFNLGQTVADNCLSLSGMGYHLGLGGYCPTCTASGEPRLCRTDRAALILAYVQQLNNIYEYRVFLASILALSDRANMQAASAEPLLSSVLAQPELFFMYHIMREGGMRDIRVLFYRDGDAGGFMMYVIFPGKSVHLHYRLIDHIQAACRGYKIVAHVWQTTFLLSVCRNPEQQTETVVPSIGTSDVYCKMCDLNFDGELLLEYKRLYALFDDFVPPRDYKDDDDK
B7: EBV BFRF1, C-terminally fused to the HA epitope (pcDNA-BFRF1-HA, pHM4697) (other)
chain: MASPEERLLDELNNVIVSFLCDSGSLEVERCSGAHVFSRGSSQPLCTVKLRHGQIYHLEFVYKFLAFKLKNCNYPSSPVFVISNNGLATTLRCFLHEPSGLRSGQSGPCLGLSTDVDLPKNSIIMLGQDDFIKFKSPLVFPAELDLLKSMVVCRAYITEHRTTMQFLVFQAANAQKASRVMDMISDMSQQLSRSGQVEDTGARVTGGGGPRPGVTHSGCLGDSHVRGRGGWDLDNFSEAETEDEASYAPWRDKDSWSESEAAPWKKELVRHPIRRHRTRETRRMRGSHSRVEHVPPETRETVVGGAWRYSWRATPYLARVLAVTAVALLLMFLRWT
notes: also called EBC BFRF1-HA; HA-tagged BFRF1
B8: pUL53 (50-292) (other)
chain: PSPADARPRLTLHDLHDIFREHPELELKYLNMMKMAITGKESICLPFNFHSHRQHTCLDISPYGNEQVSRIACTSCEDNRILPTASDAMVAFINQTSNIMKNRNFYYGFCKSSELLKLSTNQPPIFQIYYLLHAANHDIVPFMHAEDGRLHMHVIFENPDVHIPCDCITQMLTAAREDYSVTLNIVRDHVVISVLCHAVSASSVKIDVTILQRKIDEMDIPNDVSESFERYKELIQELCQSSG

What was measured:
[1] = biological target: T1, pUL53 (HCMV hook protein, soluble recombinant) (human cytomegalovirus (HCMV), UniProt P16794 50-292); test: direct ELISA, comparison of EC50 values
T1 sequence: B8 chain

[2] = biological target: T1, pUL53 (HCMV hook protein, soluble …); test: direct ELISA, pUL53 coated, His-tagged pUL50 in serial dilutions, anti-His-HRP
[3] = biological target: T2, BFLF2 (EBV hook protein, soluble recombinant) (Epstein-Barr virus (EBV), UniProt P0CK47 78-318); test: direct ELISA, BFLF2 coated, His-tagged BFRF1 in serial dilutions, anti-His-HRP
T2 sequence: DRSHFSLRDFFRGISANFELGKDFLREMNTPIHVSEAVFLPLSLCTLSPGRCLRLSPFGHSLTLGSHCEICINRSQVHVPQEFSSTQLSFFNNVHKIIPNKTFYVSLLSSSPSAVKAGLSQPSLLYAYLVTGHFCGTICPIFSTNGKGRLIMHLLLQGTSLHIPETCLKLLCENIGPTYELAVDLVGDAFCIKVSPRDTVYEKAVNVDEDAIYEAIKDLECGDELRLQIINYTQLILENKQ

[4] = biological target: T3, His-tagged pUL50 (HCMV groove protein, soluble recombinant) (human cytomegalovirus (HCMV)), P16791; test: competitive ELISA, inhibition of His-tagged pUL50 binding to coated pUL53
T3 chain: B1 chain

[5] = biological target: B4; test: coimmunoprecipitation, transiently transfected 293T cells
[6] = biological target: B6; test: as above
[7] = biological target: T4, HCMV pUL50, C-terminally fused to the HA epitope (pcDNA-UL50-HA, pHM2589) (human cytomegalovirus (HCMV) strain …, UniProt P16791 1-397); test: as above
T4 sequence: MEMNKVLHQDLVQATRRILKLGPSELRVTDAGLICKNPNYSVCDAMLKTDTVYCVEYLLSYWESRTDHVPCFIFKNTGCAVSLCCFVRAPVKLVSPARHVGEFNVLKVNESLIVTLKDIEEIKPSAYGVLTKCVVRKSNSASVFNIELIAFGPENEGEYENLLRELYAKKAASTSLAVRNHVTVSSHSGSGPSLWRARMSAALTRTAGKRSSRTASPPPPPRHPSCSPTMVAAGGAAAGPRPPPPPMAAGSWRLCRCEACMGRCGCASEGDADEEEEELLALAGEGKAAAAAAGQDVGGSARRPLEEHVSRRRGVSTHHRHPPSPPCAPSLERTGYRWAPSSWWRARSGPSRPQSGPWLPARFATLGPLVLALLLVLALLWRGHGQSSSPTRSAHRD

[8] = biological target: B7; test: as above
[9] = biological target: the molecule itself; test: analytical size exclusion chromatography, self-association

Binder: B1
- fold stronger than the BFRF1-BFLF2 interaction of EBV [1]: ~20 fold
- EC50 [2]: 6.2 nM

Binder: B2
- EC50 [3]: 122 nM

Binder: Ac-SHFSLRDFFRGISANFELGKDFLREMNTP[Aoa]K(Bio)-NH2 (reading uncertain) [EBV hook peptide (Ac-BFLF2 80-108-Aoa-Lys(Bio)-NH2)]
- IC50 [4]: 2600 nM
- fold lower inhibitory activity than the HCMV hook peptide [4]: 22 fold

Binder: LTLHDLHDIFREHPELELKYLNMMKMAITK (modifications not checked) [HCMV hook peptide (Ac-pUL53 59-87-Aoa-Lys(Bio)-NH2)]
- IC50 [4]: 114 nM

Binder: B3
- binding result [5]: no binding
- binding result [6]: binds

Binder: B4
- binding result [7]: binds

Binder: B5
- binding result [7]: no binding
- binding result [8]: binds

Binder: B6
- binding result [7]: no binding

Binder: B7
- binding result [5]: no binding

Binder: B8
- binding result [9]: binds
